Target: GAAP-1 (Homo sapiens) (UniProt P15822)
Experiment: cell_activity
Settings: luciferase vs empty vector

Sequence of GAAP-1 (Homo sapiens) (P15822 other isoform, or with tags, fused parts or gaps): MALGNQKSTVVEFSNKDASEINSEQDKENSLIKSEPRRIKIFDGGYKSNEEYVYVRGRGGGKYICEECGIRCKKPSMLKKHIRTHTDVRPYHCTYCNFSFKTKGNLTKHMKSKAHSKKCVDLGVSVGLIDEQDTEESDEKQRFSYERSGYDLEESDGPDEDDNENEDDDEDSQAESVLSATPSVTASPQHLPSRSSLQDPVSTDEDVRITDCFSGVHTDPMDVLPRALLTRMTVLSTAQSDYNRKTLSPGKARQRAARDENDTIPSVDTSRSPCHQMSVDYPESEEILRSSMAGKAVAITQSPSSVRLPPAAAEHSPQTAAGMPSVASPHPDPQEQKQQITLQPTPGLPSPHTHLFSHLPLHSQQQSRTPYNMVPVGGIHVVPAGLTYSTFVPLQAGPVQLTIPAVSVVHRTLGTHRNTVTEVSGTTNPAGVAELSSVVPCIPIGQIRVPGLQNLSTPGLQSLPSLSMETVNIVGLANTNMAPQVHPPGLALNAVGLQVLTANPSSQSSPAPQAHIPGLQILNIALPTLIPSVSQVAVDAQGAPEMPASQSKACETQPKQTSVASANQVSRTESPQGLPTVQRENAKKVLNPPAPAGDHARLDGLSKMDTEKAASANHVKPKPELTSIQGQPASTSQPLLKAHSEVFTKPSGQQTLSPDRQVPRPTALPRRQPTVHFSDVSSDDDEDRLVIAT

| Substance | activity [fold] | activity (K562 in text, U937 in figure legend) [fold] |
| --- | --- | --- |
| IPCS-SV40 chimeric promoter | 2.5 | – |
| IRF1 promoter luciferase | 2.5 | – |
| p53 promoter luciferase | – | 2.5 |
